Results: article PMC12429950, “A chimeric RNA consisting of siRNA and aptamer for inhibiting dengue virus replication”

Tests used:
[1] = biological target: T1, DENV-1 VLP (envelope protein) (Dengue virus type 1, UniProt P17763 281-775); assay: SPR; response lower than DENV-Apt_41; conditions: protein: commercial; predicted stem-loop
[2] = biological target: T1, DENV-1 VLP (envelope protein); assay: SPR; conditions: protein: commercial; predicted stem-loop

T1 sequence (P17763 281-775): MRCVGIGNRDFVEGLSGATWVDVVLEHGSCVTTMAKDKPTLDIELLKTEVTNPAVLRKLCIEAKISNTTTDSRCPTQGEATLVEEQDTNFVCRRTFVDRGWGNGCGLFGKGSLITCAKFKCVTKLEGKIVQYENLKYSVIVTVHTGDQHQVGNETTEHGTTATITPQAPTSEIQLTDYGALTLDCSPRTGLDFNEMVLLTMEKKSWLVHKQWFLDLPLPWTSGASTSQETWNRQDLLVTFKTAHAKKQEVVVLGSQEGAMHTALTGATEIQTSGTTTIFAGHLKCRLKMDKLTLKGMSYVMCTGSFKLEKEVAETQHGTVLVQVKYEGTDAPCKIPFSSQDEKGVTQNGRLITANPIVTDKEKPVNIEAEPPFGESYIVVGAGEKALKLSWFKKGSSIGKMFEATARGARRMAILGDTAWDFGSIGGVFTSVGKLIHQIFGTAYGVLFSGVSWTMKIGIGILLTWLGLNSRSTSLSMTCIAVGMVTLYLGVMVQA

Binder | binding result [1] | binding result [2]
DENV-Apt (XNA, 2'-fluoro C and U) RNA: GGGUCUUGUUUCUUCUCUGUGUGUAAUUUGUUUUACUGGGGGGUUAACCUAACAAGUGCACACUCGUCACACACUCACAUC | binds | –
GGGUAAUUUGUUUUACUGGGGGGUUAACCUAACAAGUGCCC (XNA, 2'-fluoro C and U) [DENV-Apt_41] | – | binds
